A short description of the data set: label from the status in PepcDB records.
Regarding “MITNAFNEYKNEYAFDNVYGHLIEILKRNLDISTESGVVHLDIGCGYGAIAEHITGEVGRVYVGIDANKSGLKSLKDRGFETHEHFLESQEDALSFFERVIGDRKLGSISMLDTLEHLPNGLSILKAIATLASKHSAMVAISVPNIQHRDIGFKLALGSIAYTDAGLLDHTHVMMYDYDHLDRVLRHAGLRICDQNHVRVNHSDQFFPRDHPVLQNATTIRTFLKYVRANVNDQDQINQFVVAALPCEPITGPTFEAVRDVDRPFLSIVTRTQGKRIHTLVEYFTCLAGQVCRDFEVFVVGHRLSLERQIAIEQVIEDLPLWLRDKTKLIRVDHGNRTHPLNVGFAQANGRYIAIHDDDDIPMGHWVDSFRKLAIENDGALLRCVSSLQHVETVSLRGRDGVRSIGKTGPFPSEFDFIQHLSGNYSPNNTLAFPRGVFHHLNMRFDENLTTTEDWDYIMRVASVVGVASSPEITGTYQWWEKGNSLAMHTDNEWALNKAWIQEKLDARPILIPAGTVRKILSLWEHANNVATQLDAVSHRNAIIEGQLGAMSQYDIDVQAQMKAISDHVNFLKSEIDRNRNEAVDQQYLLREIGDIIDSTSWKLSAPMRWPKRILGARSSRLTDHLGSSVQQLQETKRRLLSSRSWRATRPMRAVARLFKVHPI”, the protein production result is reported as “failed”. Under “MITQRQNDILNLIVELFTQTHEPVGSKALQRTIDSSSATIRNDMAKLEKLGLLEKAHTSSGRMPSPAGFKYFVEHSLRLDSIDEQDIYHVIKAFDFEAFKLEDMLQKASHILSEMTGYTSVILDVEPARQRLTGFDVVQLSNHDALAVMTLDESKPVTVQFAIPRNFLTRDLIAFKAIVEERLLDGSVMDIHYKLRTEIPQIVQKYFVTTDNVLQLFDYVFSELFLETVFVAGKVNSLTYSDLSTYQFLDNEQQVAISLRQSLKEGEMASVQVADSQEAALADVSVLTHKFLIPYRGFGLLSLIGPIDMDYRRSVSLVNIIGKVLAAKLGDYYRYLNSNHYEVH” stands “failed”. Next, “MITQVNQLDELQLKDLKTLRAECKKNDGSIPNLYIHILKQHRSLPTSFLYYQNGALIGFLSIYFFYDDAVEVAVLVSPQYRRQGIAKQLIKEALPLIKSQNYFNLIFSCPSRLNDNWLTSKGFTYLHSEYFMERDDLNPILDYIR”: “not failed”; “MITRLVLATAGAAVALGLPADVRAYEYEQEATTKLMTDMIVDLGGHDTVRRNSGKTVRCGDGGTRRVSIVRRGATTTYRGDYRNCRERGLTRDGFYEIVFKGDEIVSSTSKRSVNGELFDAAMAGNAAGVRKLIRARADVNYTESVDRTEGGTIDGVSPLMVATMAGSLDTVKLLVANGAWVNYLNSMAVNALWIAAHNGHPEIVRYLAGRGAYLNNSNVEDVTPLMAAAMNGHLAVVKFLVGAKADINAVHRDGDTALMFALAQNRTDIARFLIDAGADVAVRNRHGVTALLIAVAEGNEEIVRALLERKADVSVRTADGKSALDVARARGMDGIAKLLEAAGSY”: “failed”; “MIVASRSPLPLAPPMLFPASDDDVPFDDAPRILLFTGKGGTGKTTCAAATAQHAARQGHKTLVLSSDPAHSLADALDQELGPEAREVRDRLFAQEVDLYYSMKKHWGHMRELMLTVFRWQGVDQIAAEELAALPGMNEGSVLLWLEEALREADYDLIVVDSAPTGETLTLLTLPQVTQWWLAKAFPFQKMAVKSLGFGVRKATGIPLDKGYEELEVIFEKLERVQQVLATPSTTSIRLVTNPEKMVIEEARRAFTYLQLYGYGVDSVVVNRVLPEEEVPADSFFEGYVESQREYLEEIEQSFRPLPILQVPHLGEEVFGAERLGRIGDAMYAERNPTDVFYDEPTFTVEEDGDAYVLNLRLAFATEADVDVRQLGDQLVVQVANQRSNVILPNFLNYYHMTNAALEEGWLRVRFTPDGEASSN”: “failed”.

In the case of “MIVAVESLDTSKKRKLHAEESDLLPLPKHFCSEHQASLVNSSCPSSVIDYAECSYAMENTKTSDEASSSASFTGPSLYMFKDSIYSTGSSSSGYAATSSIEQCFSKVDHKTQEDTQDFTHMEFIYHDSEFAVEDLQEVLNPVESYILSSARWSVSNQDSKEATTKPTIDQEFEQYFSTLMM”, the protein production result is given as “failed”. Under “MIVFKAENLSVGYNGVKAVSNINFSAKQGEIICLLGPNGAGKTTIIRTLSGLLPPIEGEIHINGKSLSTINKKLLAQTLSVVLTEKPSFDVMTAFDVVSLGRFPHTGFFGTITKEHEIKVVEALKTVGALNLIDKYFHILSDGERQKVMLARALVQEPQIIILDEPTTHLDINHKIELLNTLKNLSRTAKLTVILSLHEIDLALKYCDKVMLVENKKVLSFGSPETTVNGETINKLYGIKNASFNPITSSIELKNSEKSNIYVIGGCGFGTPIYRLLSKYNLGFSTGILHENDIDYETAKTMSLRLQSEKPFQKISKISFEKALAAVASSDIIIDSGFPIGETNEKNLNLLNYAVEKNKRVITFRKYFNSTMSYCSNKDALIDFILRLEHHHHHH” stands “failed”. Next, “MIVIEKLTVDMARGVENNLEGLQIFVAVAEAGGFTAAAERLGMTKANVSLQVGRLEAQLGATLFTRTTRRVKLTEAGQALYLDAQPALAALRDALLQAGHGAAELSGTLRLTAPVSHMAESVAPAATQFIRRHPGLQLELHAIDRMVDLVAEGMDLAIRLGTLRDSSLRALKLGEFAQQLVASPAYLRERGMPAHPGELAGHDWVALTLLKTPLTWRFAGAGGAEETVRMRARIKVDSAASLRSLLLAGAGMSVLDSFSVQEDLRQGRLIHLLPQWTLPKGGVYAVFPPGRHAPAAARAFVEFYRVLLARPV”: “failed”; “MIVIYFFSTKSQQFFAYVWAIFPVIAFFLVSFYTLDFLFSPSYLIMVPVFTIMFKINYKKDYSFVALLKMSIRQFVISFLAFIASSSFSWSIILNSSVTFLIVYLFYSSATPMRYHSYLMMFTFCQLIQVKGNTFLMQSQVVAFLIGLFLLALTLNAWWQTGLRQLTSLKSRGHVRFFKSIQLNMKQQKLAVINFWHDLQQIFFGITSFKQFLESPDERVQRFRLAIRMSFTITLSFILMWSVGGIKIIWIPMNVFLLLHPVKAEMNTRIKTRFWGTLLGCFLSLFVVNWLQLPLTHLIVSSLIGIFVYALKPGTVLQVTMATIFGLCLATISLRGMYAAELRVSFVLLAIFVVCLIDLGLFVYQRILRF”: “failed”; “MIVKCPICDGTGKKVVKYKTCPVCEGTGFIDEFSPKQHMKRVSKRATYDLDYGEIPCPKCKGTGKVPVYAKCDFCGGSGKVVKCDRCGAIIGKYPDFKDRTLCDKCLKEEEERKKGLRNVYVFDELATFYDVEPGKFYKGVVTRIEKYGAFINLNEQVRGLLRPRDMISLRLENLNVGDEIIVQAIDVRPEKREIDFKYIPLTTYDLVKYEKEVPLSQIKDISQNLVEMRDQVVHIRGEVVQIVQTPGPTVFTITDGTDFAWVAALEIAGLRAHPDVKVGDIVDVIGRVTIRDGRLQIERIKLQKLEGDEAEEIRKKIEEEIDRRAEPAKDIPFLVKSEVLERLRPKMADVAKRIRKAVLDGRPIIIRHHADTDGYCGGIALEKAILPIIDKFAIDVDAIWHFFKRRPSKAPFYELEDVTKDLVFSIEDALKFGQKLPLIVLIDNGSTDEDIPAISKAKAYGIEVIVIDHHFPGEVVDGKVEVDDYVDAHVNPYLVGGDSNLTAGVLGTEIARMINPDVEDEIKHIPGIAVVGDHAKGEEAEQYVKIALDRLNELSKKYGKGRTYDREYLEKIALCMDFEAFYLRFMDGKGIVDDILATNIKEFGRHEELIDILYEQAMKMVERQMKAVIPALKTEFLENGIILNTLDVEKYAHKFTFPAPGKTTGFAHDYIVQKYGEDKPIITLSYGPDFGVVRATDAVHEKYNFNLNLIVEQLMEEIPEASLDGGGHECAGSLKFVEGLRDKVIGRFIEIIKNMKPKEQ”: “failed”. Next, “MIVMSKNVDEAISRKEEKCIMSFIPNMITIANFVCGLLAIYAVFVHDIYLGAVFIITGMLFDFFDGMVARKLDSVSEIGGELDSFADLVTFGVAPSILAYSASLKDLQSIGMICALTYSICGMLRLARFNTQQSKLPTFIGMPIPFAAMCLLILCFLKNPVSVAFGTCVLAYLMVSKIKFPHFKKDIAESLKPGRLD”: “failed”. As to “MIWRGEKLISNKVKIVRLLNKSKKSLLRGIFSRTTVIAILLILQLLFLLASYSWLEQYRVWLATVEHILTIGAVLYLVNSEMDALSRVTWLILVMIAPLLGAMFLMYTKFDWGYRGLKQRLETLIDESQIYLEDDPETLNQLKSSTSTTYHLVQYFEKAHGNFPVYRNTDVTFLPTGEAFFEKMKEELLKAKKYIFLEFFIIDEGIMWGEILSILEQKVEEGVEVRILYDGMIEITKLSFDYTKRLEKIGIKAKAFSPISPFISTYYNYRDHRKIVVIDGVVGMTGGVNLADEYINHIELFGHWKDSGIMLKGKAVDSFLLLFLQMWSITEEKMLVAPYLGVHDDLVENEGYVIPYGDSPLDTDKVGENVYIDILNHAREYVYIMTPYLILDSELEHAIQFAAERGVDVRIIMPGIPDKPIPYALAKTYYQALTKSGVKIYEYTLGFVHSKIFLSDNTKAVVGTINLDYRSLYHHFECAVYLYKVDAIQDIYRDYMDTLNKSRLVSLKDINNIPKFQKVIGIVTKTIAPLL”, the protein production result was “failed”. Under “MIYENHANTAENNGPLALVLGANGGVGSHVLKMLLQRGWQVRALTRQRVAAGASDGIERVTGDVMNRQDVMDAAKGATLIVHAVNPPGYRDWERQVLPMLDNTIAAAEACGARILLPGTVYNFGPDAFPLLKEDSPQQPFTRKGALRVEMERRLKMASMRGVPVLIVRAGDFFGPDAKNNWFSQMLVRPGKPVRSVQNPAAPHAGHQWAYLPDVAETIGRLLDRSGELPPFAVYHMEGFWDFDGLQLVGAIERAVGRPVKMRRMSWLAIKLAAPFVPLFREVLEMQYLWHMPLRMSNGKLTDFLGAEPKTPVDIAVSATLTSLGCIEQPRVPASLHRPVDAGGRV” stands “failed”; under “MIYLFSHAGLRDLRDFIDRSTLFAFDLDGTLAPIVSDPAGIMIPPDVHERLVRLNGTASVAVVTGRARVDAARHLGFAPRFLVGNHGAEGLPGADAAEREFIGLCRGWMTQLGELLPEGEGTGIVMEDKSATLSLHYRNAPDRENAHQRILAAVSRLLPAPRRVSGKLVENLVPAAAPHKGDALRCIMRHLGCARALFVGDDVTDEDVFRLGDEAIFGIRVGNSGGSAARYFIRGQDEMAPLLDEILAVL”, “failed”; under “MIYMPIVVAVDKKSDRAERVLRFAAEEARLRGVPVYVVHSLPGGGRTKDEDIIEAKETLSWAVSIIRKEGAEGEEHLLVRGKEPPDDIVDFADEVDAIAIVIGIRKRSPTGKLIFGSVARDVILKANKPVICIK”, “not failed”. Next, “MKAANSGRTAAALECFERVVKLQSTPVNWSYLAFCVARERQQFEHATRLCEEAVRREPRSSVLYLNLGKVYLLSGRKDDAIRTFRQGLLYERNTLIESELRRLGLRKPPVLNFLAREHPVNKYLGIMLKKLKIRLEHHHHHH”: “failed”.

Values taken from a protein production outcome set (Wang et al. 2014).
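Note: failed if final PepcDB status was selected cloned or expressed and not failed if soluble or beyond.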
